Assay results published in patent US6861234B1, “Method of epitope discovery” (MannKind Corporation, priority 2000, dated 2005).

Biological target: HLA-A2.1 (Homo sapiens, UniProt P04439, D140Y/D185E/D98H/E176V/E277Q/G131W/G231S/I119V/I121R/I166T/I218V/L300P/L318F/N151K/N90K/P208A/P217A/Q86G/Q94H/R138H/R169H/T345S)
Assay: T2 cell HLA-A2.1 stabilisation (peptide binding) assay by flow cytometry, method of Stauss et al.
Assay type: cell-based
Settings: T2 cells, β2 microglobulin 5 μg/ml, peptides at 100, 10, 1 and 0.1 μg/ml, 4 hours 37° C., W6/32 + FITC anti-mouse IgG, FACScan; FIG. 3
Description: The epitope is synthesized and tested for its ability to bind a MHC receptor. For example, in one preferred assay, cells displaying the MHC I receptor can be used to measure the binding affinity of candidate peptides labeled with a radionuclide. Another preferred approach measures the ability of a peptide to bind to an MHC I receptor using a cell culture-based assay. In this assay, cells lacking transporters associated with antigen processing (TAP) are used to determine whether or not a candidate peptide has the ability to bind to the MHC I receptor. […] When the cell is flooded with exogenous peptide that can bind to the MHC I cleft, expression of the receptor is restored. This can be monitored by several means such as RIA, FACS, and the like. Using TAP^− cells, one of skill in the art can screen large numbers of potential candidate peptides for receptor binding without having to perform detailed binding affinity analysis.
Binding of a candidate epitope to HLA-A2.1 was assayed according to the method of Stauss et al., (Proc Natl Acad Sci USA 89(17):7871-5 (1992)). […] Peptides were added at 100, 10, 1 and 0.1 μg/ml. The plate was rocked gently for 2 minutes and then incubated for 4 hours in a 5% CO2 incubator at 37° C. After the unbound peptide was removed by washing twice with IMDM, a saturating amount of monoclonal antibody W6/32 (Sigma) was added. […]

FLPWHRLFLL (Homo sapien) [tyrosinase 207-216]
binding to HLA-A2.1 (surface HLA-A2.1 molecules stabilized by peptide binding, fluorescence): bind HLA-A2.1 to a similar extent as the known A2.1 binder FLPSDYFPSV
